In patent publication US20180221513A1, “CONTRAST-AGENT-LABELED PEPTIDE AMPHIPHILE NANOFIBERS” (Northwestern University, priority 2015, published 2018):
peptoid linker = not defined here

What was measured:
[1] = ICP-MS of leg muscles for Gd(III) retention after day 4; type: in vivo, mice; settings: after four days; intramuscular PA gel 1 wt %, 10 mol % Gd(III)-PA
Description: To measure degradation in vivo, six wild-type mice received approximately 4 μL injections of PA gels at 1 wt % loaded with 10 mol % Gd(III)-PA relative to C16V3A3E3-NH2. The injections were applied with a modified syringe pump designed to inject while withdrawing the needle to produce a gelled track of PA in situ. Injection volume varied because track length varied slightly with mouse size and small variations in each injection geometry. The tract geometry was chosen to give accurate T1 determinations because imaging slice thickness could be greater without volume averaging effects. A total of five legs were injected with PA1, four legs with PA3, and three with 100% C16V3A3E3-NH2 as a control. Mice were imaged at day 0 immediately after injections and again at day 4. The Gd(III)-PA was clearly visible in all cases (FIG. 5). […]
For Gd(III) analysis, mouse leg muscles were excised and digested in 1 mL of nitric acid per gram of tissue in Teflon tubes. […] Digest was diluted and measured using the same conditions as above.
All measurements used a Thermo X series II ICP-MS (Thermo Fisher Scientific, Waltham, Mass., USA) operating with an ESI SC-2 autosampler (Omaha, Nebr., USA). […] The two most common isotopes of Gd, 157Gd and 158Gd, were measured. 115In and 165Ho were measured as internal standards.

[2] = T1 and T2 relaxivity (r1, r2) at 1.41 T, Bruker Minispect relaxometer; type: physicochemical; settings: 1.41 tesla
Description: Using a Bruker Minispect relaxometer operating at 1.41 T, T1 and T2 relaxivity values (r1 and r2) were determined for each agent (Table 1). […] Thermal annealing followed by addition of CaCl2 caused complex changes in the observed agent relaxivity (Table 1). […] This increased accessibility is consistent with a more extended molecular structure as indicated by SAXS.
All concentrations used in relaxivity determination were obtained using ICP-MS. Samples were digested using ACS reagent grade nitric acid (70%) for a least 2 hours at 70° C. Samples were diluted in filtered, deionized water. A standard containing the elements Bi, Ho, In, Li, Sc, Tb, and Y was added to a final concentration of 5 ng/mL (Inorganic Ventures, Christiansburg, Va., USA). Final nitric acid concentration was 3%. The instrument was calibrated using a serial dilution of Gd(III) standards (Inorganic Ventures, Christiansburg, Va., USA) with nitric acid and internal standard concentrations identical to the samples. Calibration was conducted with 1.000, 5.000, 10.00, 20.00, 50.00, 100.0, and 200.0 ng/mL Gd(III) standards.
T1 Measurements were performed at 1.41 T with a Bruker Minispect mq60 magnet, using an inversion recovery sequence. T2 measurements were acquired using a Carr-Purcell-Meiboom-Gill (CPMG) pulse sequence. PAs were weighed out and dissolved in Millipore water to form 1 mg/mL solutions, and then these solutions were serial diluted to 0.5, 0.25, 0.125, 0.05, and 0.01 mg/mL concentrations. For each concentration, T1 and T2 were measured. These solution concentrations were then measured using ICP-MS for relaxivity determination. Samples were lyophilized and resuspended in 50 mM Tris and 150 mM NaCl buffer. These were then adjusted using small volumes of 0.1 M NaOH to reach pH 7.4. T1 and ICP-MS measurements were then taken of these solutions. The relaxometer tubes were heated at 80° C. for 30 min in a water bath. The bath was allowed to come to room temperature over several hours. T1 times were measured. Finally, 100 μL of 20 mM CaCl2 solution was added to each tube. The tubes were vortex-mixed and allowed to stand for 20 minutes. ICP-MS and T1 measurements were conducted once more.

[3] = 1H NMRD profiles, fits with modified Florence approach; type: physicochemical; settings: fits at 37° C.
Description: ^1NMRD profiles were collected with a Stelar Spinmaster FFC-2000-1T fast field cycling relaxometer in the 0.01-40 MHz proton Larmor frequency range, at 293 and 310 K. Longitudinal relaxation rates were measured with an error smaller than 1%. Proton relaxivities were calculated by subtracting the diamagnetic contribution of the peptide nanofibers in the absence of Gd(III) from the relaxation rates of the paramagnetic samples, and normalizing to 1 mM Gd(III) concentration. The profiles were analyzed using the Freed model for outer-sphere relaxation (refs. 48, 49; incorporated by reference in their entireties) and the modified Florence NMRD program for the inner-sphere relaxation (refs. 45, 46, 50; incorporated by reference in their entireties). The effect of static ZFS on nuclear relaxation is considered along with transient ZFS, where modulation is responsible for electron relaxation, provided molecular reorientation time is much longer than electron relaxation time (refs 51,52; incorporated by reference in their entireties). In order to establish which parameter was dominant in relaxivity changes, NMRD profiles of each PA were measured. NMRD profiles for all four PAs at 25° and 37° C. are shown in FIG. 3 with parameter fits obtained using the “modified Florence” approach (refs. 44-46;1 incorporated by reference in their entireties). In the fits, a Lipari-Szabo order parameter S^2 was included to consider the effect of local motions which may superimpose to the global motion of the nanostructures. A smaller S^2 value indicates a less restricted local mobility (e.g., a more flexible linkage between fiber and macrocycle). […] The NMRD fits show τm is primarily responsible for the variation in relaxivity observed upon annealing and Ca2+ cross-linking (Table 2). It is contemplated that annealing and calcium addition change macrocycle presentation on the fiber surface, extending them from the structure with increased peptide packing density and facilitating faster water exchange. […] The ^1H NMRD profiles were analyzed assuming one water molecule regularly coordinated to the Gd(III) ion in the presence of freely diffusing outer-sphere water. The contribution of the coordinated water protons […]) to the relaxation of bulk water protons (R1) largely depends on the τM of coordinated water if τ[…], as expected for Gd(HP-DO3A), according to the following relationship: R1=fM(1/[…]+τM)^-1+Ros where f^M is the mole fraction of ligand nuclei in bound positions and Ros is the outer-sphere contribution. […] is calculated by considering the simultaneous presence of both static (D) and transient (Δt) ZFS, as needed for Gd(III) complexes, through the “modified Florence” NMRD program, 4-6 assuming slow rotation, i.e. the molecular tumbling time τR is much longer than the electron relaxation time Tle. The PA fiber's micron-scale size assures that TR could be fixed to a large, constant value (≥100 ns) in the calculation of the relaxation profile. The ^1H NMRD profiles of PA 1 were repeated at both temperatures using the same Δt value of 0.0142 cm-1, D=0.046 cm-1, θ=42° (angle between the z-axis of the ZFS tensor and the metal-water direction) and a correlation time for electron relaxation τV=24 ps. A distance of closest approach of diffusing water molecules (d) of 7-10 Angstroms should be set, i.e. somewhat larger than usually found in isolated Gd(III) chelates (3.5-4 Å). […]

[4] = Addition of CaCl2 to annealed solution

| Compound | Gd(III) retention: remained in the mouse leg (ICP-MS) [1] [%] | r1 (T1 relaxivity) [2, 4] [mM⁻¹ s⁻¹] | r2 (T2 relaxivity) [2, 4] [mM⁻¹ s⁻¹] | r1 (T1 relaxivity) ([2]; After Thermal Annealing) [mM⁻¹ s⁻¹] | r2 (T2 relaxivity) ([2]; After Thermal Annealing) [mM⁻¹ s⁻¹] | r1 (T1 relaxivity) ([2]; H2O) [mM⁻¹ s⁻¹] | r2 (T2 relaxivity) ([2]; H2O) [mM⁻¹ s⁻¹] | r1 (T1 relaxivity) ([2]; Tris Buffer (pH 7.4)) [mM⁻¹ s⁻¹] | r2 (T2 relaxivity) ([2]; Tris Buffer (pH 7.4)) [mM⁻¹ s⁻¹] | τm (water exchange lifetime), best-fit value ([3]; Annealed) [ns] | τm (water exchange lifetime), best-fit value ([3]; Buffered) [ns] | τm (water exchange lifetime), best-fit value ([3]; Ca^2+) [ns] | S^2 (Lipari-Szabo order parameter), best-fit value [3] | τlocal, best-fit value [3] [ns] |
| --- | --- | --- | --- | --- | --- | --- | --- | --- | --- | --- | --- | --- | --- | --- |
| CCCCCCCCCCCCCCCC(=O)N[C@H](C(=O)N[C@H](C(=O)N[C@H](C(=O)N[C@@H](C)C(=O)N[C@@H](C)C(=O)N[C@@H](C)C(=O)N[C@@H](CCC(=O)O)C(=O)N[C@@H](CCC(=O)O)C(=O)N[C@@H](CCC(=O)O)C(=O)NCC(=O)N(CC(=O)N(CC(=O)N(CC(N)=O)Cc1cn(CC(O)CN2CCN(CC(=O)O)CCN(CC(=O)O)CCN(CC(=O)O)CC2)nn1)Cc1cn(CC(O)CN2CCN(CC(=O)O)CCN(CC(=O)O)CCN(CC(=O)O)CC2)nn1)Cc1cn(CC(O)CN2CCN(CC(=O)O)CCN(CC(=O)O)CCN(CC(=O)O)CC2)nn1)C(C)C)C(C)C)C(C)C (some centres unmarked) (Gd complex, metal not drawn) [PA3] | 54±9 |  |  |  |  |  |  |  |  |  |  |  |  |  |
| C16-VVVAAAEEE-(peptoid linker)-(Gd(HP-DO3A) macrocycle) (C16-VVVAAAEEE-{peptoid linker-Gd(HP-DO3A)}; reading uncertain; also: Gd(III) chelated in HP-DO3A macrocycle) [PA2, V3A3E3 peptide amphiphile, Gd(III) contrast agent conjugated at the C-terminus without a glycine linker] |  | 21.7 ± 0.1 | 45 ± 2 | 16.9 ± 0.2 | 28.6 ± 0.6 | 17.3 ± 0.8 | 39 ± 2 | 16.7 ± 0.2 | 32.2 ± 0.5 | 540 | 640 | 410 | 0.3 | 4 |
